Assay results as given in US20160046725A1 (published 2016).
Substitutions are numbered along the chain they refer to. Read-outs that look alike come from different tables or passages of the source.

Tests used:
Assay in all cases: ELISA
[1] = target: T1, recombinant human Axl-Fc protein (R and D Systems, cat N° 154-AL) (UniProt P30530 26-451)
[2] = target: T1, recombinant human Axl-Fc protein (R and …); remark: listed apart in the source
[3] = target: T1, recombinant human Axl-Fc protein (R and …); remark: listed apart in the source

T1 sequence (P30530 26-451 D266N): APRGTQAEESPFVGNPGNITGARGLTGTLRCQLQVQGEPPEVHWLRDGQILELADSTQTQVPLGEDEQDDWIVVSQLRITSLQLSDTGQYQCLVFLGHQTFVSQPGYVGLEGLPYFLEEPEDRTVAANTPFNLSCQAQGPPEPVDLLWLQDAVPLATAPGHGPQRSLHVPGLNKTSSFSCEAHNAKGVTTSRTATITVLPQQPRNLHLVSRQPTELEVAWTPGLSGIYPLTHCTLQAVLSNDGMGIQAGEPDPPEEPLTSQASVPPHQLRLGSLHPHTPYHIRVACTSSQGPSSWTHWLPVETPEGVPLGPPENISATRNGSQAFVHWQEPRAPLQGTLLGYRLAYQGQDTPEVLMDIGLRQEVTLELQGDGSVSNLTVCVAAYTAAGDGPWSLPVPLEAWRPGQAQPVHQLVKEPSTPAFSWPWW

B1: 110D7 anti-Axl monoclonal antibody (antibody, V domains shown)
VH: EVKLVESGGGLVQPGGSLKLSCATSGFTFSDYYMYWVRQTPEKRLEWVAYISNGGGSTYYPDTVKGRFTMSRDNAKNTLYLQMSRLKSEDTAMYYCARLSFYAMDYWGQGTSVTVSS
VL: DIVMTQSHKFMSTSVGDRVSITCKASQDVTTAVAWYQQKPGQSPKLLIYWASTRHTGVPDRFTGSGSGTDYTLTISSVQAEDLALYYCQQHYRIPFTFGSGTKLEIK
EC50 [1]: 1.35 nM

B2: 1024G11 anti-Axl monoclonal antibody (antibody, V domains shown)
VH: EVKLVESGGGLVQPGGSLNLSCAASGFTFSSYSMSWVRQTPEKRLEWVAFISNGGGRTYYPDTVKGRFTFSRDNARNTLYLQMSSLNSEDTAMYFCARGTTESYYAMDYWGQGTSVTVSS
VL: B1 VL with T30I, Y87F, Y92L, R93S, I94T, F96L, S100A, I106L
EC50 [2]: 3.57 nM

B3: 1003A2 anti-Axl monoclonal antibody (antibody, V domains shown)
VH: B2 VH with N19K, S30N, F50Y, V64I, F70L, A75D, N87K, F95Y, M107L
VL: B1 VL with V15L, V19I, T30I, T72N, Y92F, R93S, I94T, F96L, S100A, I106L
EC50 [3]: 2.35 nM
